This assay concerns the target Complement C3b, human, purified (human) (UniProt P01024). Nature of the assay: SPR. On the technique in general: SPR reads the build-up and loss of mass on a sensor chip optically.

As a reminder, the Kd is the equilibrium constant for the complex coming apart. Read a high Kd as weaker binding. As for “Factor H CCP1-4 variant R166Q (domain or fragment)”, the Kd is 64.4 µM.
As to “Factor H CCP1-4, wild type (domain or fragment)”, the Kd was 6.8 µM.
